Consider four molecules from patent US20230357367A1.

Changes are numbered by the printed parent chain. Read-outs that look alike come from different tables or passages of the source.

Assay [1] deals with T1, SARS-CoV-2 spike S2 peptide 1149-1167 (C-terminal end of the stem helix), biotinylated (SARS-CoV-2). Description: SPR, Fab over captured biotin-peptide, 25 C.
Assay [2] deals with T2, SARS-CoV-2 spike S2 peptide 1149-1163, biotinylated (SARS-CoV-2). Description: SPR, Fab over captured biotin-peptide, 25 C.
Assay [3] deals with T3, SARS-CoV-2 spike S2 peptide 1153-1167, biotinylated (SARS-CoV-2). The assay can be described thus: SPR, Fab over captured biotin-peptide, 25 C.
Assay [4] deals with SARS-CoV-2 spike S2 peptide 1143-1162 (stem helix region), biotinylated (SARS-CoV-2). The assay can be described thus: SPR, Fab over captured biotin-peptide, 25 C.
The target in assay [5] is T1, SARS-CoV-2 spike S2 peptide 1149-1167 …. Description: SPR, Fab over captured biotin-peptide, 25 C. This is another data set of the same source.
In assay [6] the target is T2, SARS-CoV-2 spike S2 peptide 1149-1163, …. The assay can be described thus: DELFIA, IgG titrated on captured biotin-peptide. The arrangement: unit not given beside the values.
In assay [7] the target is SARS-CoV-2 spike S2 peptide 1157-1171, biotinylated (SARS-CoV-2). Description: DELFIA, IgG titrated on captured biotin-peptide. The arrangement: unit not given beside the values.
Assay [8] addresses T3, SARS-CoV-2 spike S2 peptide 1153-1167, …. The assay can be described thus: DELFIA, IgG titrated on captured biotin-peptide. The arrangement: unit not given beside the values.
The target of assay [9] is HIV-1 Env peptide (negative control 15-mer), biotinylated (HIV-1). Description: DELFIA, IgG titrated on captured biotin-peptide. The arrangement: unit not given beside the values.
Assay [10] addresses SARS-CoV-2 spike S2 peptide 1133-1147, biotinylated (SARS-CoV-2). The assay can be described thus: DELFIA, IgG titrated on captured biotin-peptide. The arrangement: unit not given beside the values.
In assay [11] the target is SARS-CoV-2 spike S2 peptide 1137-1151, biotinylated (SARS-CoV-2). Description: DELFIA, IgG titrated on captured biotin-peptide. The arrangement: unit not given beside the values.
Assay [12] concerns the target T1, SARS-CoV-2 spike S2 peptide 1149-1167 …. Description: DELFIA, IgG titrated on captured biotin-peptide. The arrangement: unit not given beside the values.

B1: AB-1 Fab (Fab, V domains shown)
VH: EVQLVESGAEVKKPGESLKISCKGSGYTFTRYWIGWVRQMPGKGLEWMGIIYPGDSDVRYSPSFQGHVTISADKSISTAYLQWNSLKASDTAMYYCARLPQYCSKGVCYRWFDPWGQGTLVTVSS
VL: EIVLTQSPSSVSASVGDRVTITCRASQGISSWLAWYQQKPGKAPKLLIYAASSLQSGVPSRFSGSGSGTDFTLTISSLQPEDFATYYCQQGHSFPYTFGQGTNLEIK
For the molecule B1, the Kd in assay [1] amounted to 0.925 nM; in assay [2] it was 83.1 nM; in assay [3], 111 nM; in assay [4], 12.3 nM; in assay [5], 0.9 nM. Besides, the koff stood at 0.146 s⁻¹ in assay [2], 0.0774 s⁻¹ in assay [3], 0.037 s⁻¹ in assay [4] and 0.00241 s⁻¹ in assay [5]. Also, the kon in assay [2] was 1.76e+06 M⁻¹ s⁻¹; in assay [3] it was 697000 M⁻¹ s⁻¹; in [4], 3e+06 M⁻¹ s⁻¹; in assay [5], 2.61e+06 M⁻¹ s⁻¹.

B2: Reference Antibody Fab (Fab, V domains shown)
VH: B1 VH with V58T, K105N, Y109Q
VL: B1 VL with H92N
Take B2: the Kd in assay [1] came out at 5.36 nM; in [2], 244 nM; in assay [3], 311 nM; in assay [5], 5.4 nM. Also, the koff in [2] is 0.0663 s⁻¹; in assay [3] it was 0.0535 s⁻¹; in [5], 0.00498 s⁻¹. Also, the figures for the kon in assay [2], in [3] and in [5] were 272000 M⁻¹ s⁻¹, 172000 M⁻¹ s⁻¹ and 929000 M⁻¹ s⁻¹, respectively.

B3: Reference Antibody (antibody, V domains shown)
VH: B1 VH with V58T, K105N, Y109Q
VL: B1 VL with H92N
In the case of B3, the AUC in [6] was determined as 3.26e+06; in [7] it was 6010; in assay [8], 3.12e+06; in [9], 16100; in assay [10], 3260; in assay [11] it was 5050. In addition, the AUC in assay [12] came to 3.05e+06.

B4: AB-1 (antibody, V domains shown)
VH: B1 VH
VL: B1 VL
In assay [9], B4 yielded an AUC of 9860.
